Like-named read-outs stand apart in the source and are kept apart here.
Key:
[1] = target: ADM (human or mouse not told for the control row of Table 3); assay: cell-based or functional assay
[2] = target: human recombinant adrenomedullin receptor (CRLR+RAMP3) (human)
[3] = target: human recombinant adrenomedullin receptor (CRLR+RAMP3) (human); remark: listed apart in the source

Maximal inhibition of ADM bioactivity (ADM-Bioassay) (%) [1]	IC50 (read off the curve) [2]	IC50 (read off the curve) [3]	Substance
0%			Non specific mouse IgG (antibody)
	200 nM	3000 nM	hADM 22-52 (on the sheet: antagonist) (peptide)

— patent US20140328853A1
